Values joined by “and” are separate entries in the source; they are usually repeats but may differ in a detail not shown here. Equal entries are not always repeated.
How the values were obtained:
[1] = target: T1, HER3 on HER3-expressing tumor cells (human, UniProt P21860 20-1342); assay: cell-based or functional assay
[2] = target: T2, CD3 on CD3-expressing Jurkat cells (human, UniProt P07766 23-207); assay: flow cytometry, CD3-positive Jurkat cells
T2 construct: whole, on cells; also called human CD3
T2 sequence (P07766 23-207): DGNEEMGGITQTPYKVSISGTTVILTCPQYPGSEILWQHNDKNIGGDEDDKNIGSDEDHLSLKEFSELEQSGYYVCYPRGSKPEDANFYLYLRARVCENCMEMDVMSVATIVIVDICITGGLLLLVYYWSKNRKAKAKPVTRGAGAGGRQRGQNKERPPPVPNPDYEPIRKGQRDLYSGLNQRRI

[3] = target: T2, CD3 on CD3-expressing Jurkat cells; assay: flow cytometry, CD3-expressing Jurkat cells
[4] = target: T1, HER3 on HER3-expressing tumor cells; assay: flow cytometry, HER3-expressing MCF-7 cells
[5] = target: T3, HER3-Fc fusion comprising the extracellular domain (aa 27-599) of human HER3 (human, UniProt P21860 27-599); assay: ELISA, coated HER3-Fc (aa 27-599), anti-His-HRP
T3 construct: also called HER3-Fc fusion protein; not shown: Fc part

HER2-ECD protein = target: T4, HER2-ECD protein (UniProt P04626 23-652, limits assumed); assay: ELISA, immobilized HER2-ECD
T4 construct: extracellular domain

[6] = target: T5, HER3-His (HER3 aa 27-599 of the extracellular domain fused C-terminally with a hexahistidyl-tag) (human, UniProt P21860 27-599); assay: ELISA, coated His-tagged HER3 ECD (aa 27-599)
T5 construct: also called soluble His-tagged HER3; His-tagged extracellular domain of HER3; not shown: C-terminal hexahistidyl-tag

[7] = target: T1, HER3 on HER3-expressing tumor cells; assay: flow cytometry, HER3-positive MCF-7 cells; MCF-7 cells
[8] = target: T5, HER3-His (HER3 aa 27-599 of the …); assay: sandwich ELISA: coated EGFR-Fc, serial dilution of Db3-43xhu225-Ig, then 300 nM HER3-His detected by anti-His-HRP
EGFR on tumor cells [9] = target: T6, EGFR on tumor cells (human, UniProt P00533 25-1210); assay: flow cytometry, FaDu cells (very high EGFR, low HER3; the filing says binding is most likely through the hu225 moieties); FaDu cells
T6 construct: whole, on cells; also called EGFR on FaDu and SKBR-3 cells

EGFR on tumor cells [10] = target: T6, EGFR on tumor cells; assay: flow cytometry, SKBR-3 cells (carry EGFR and HER3; bispecific, number not split between the two targets); SKBR-3 cells (EGFR and HER3 in similar ranges)
[11] = target: T1, HER3 on HER3-expressing tumor cells; assay: as above
[12] = target: T7, mouse HER3-Fc fusion protein (extracellular region of mouse HER3 fused to a human Fc region) (mouse, UniProt Q61526 20-641); assay: ELISA, immobilized mouse HER3 extracellular region fused to human Fc, scFv detected with anti-His-tag antibody
T7 construct: extracellular domain; not shown: human Fc region
T7 sequence (Q61526 20-641): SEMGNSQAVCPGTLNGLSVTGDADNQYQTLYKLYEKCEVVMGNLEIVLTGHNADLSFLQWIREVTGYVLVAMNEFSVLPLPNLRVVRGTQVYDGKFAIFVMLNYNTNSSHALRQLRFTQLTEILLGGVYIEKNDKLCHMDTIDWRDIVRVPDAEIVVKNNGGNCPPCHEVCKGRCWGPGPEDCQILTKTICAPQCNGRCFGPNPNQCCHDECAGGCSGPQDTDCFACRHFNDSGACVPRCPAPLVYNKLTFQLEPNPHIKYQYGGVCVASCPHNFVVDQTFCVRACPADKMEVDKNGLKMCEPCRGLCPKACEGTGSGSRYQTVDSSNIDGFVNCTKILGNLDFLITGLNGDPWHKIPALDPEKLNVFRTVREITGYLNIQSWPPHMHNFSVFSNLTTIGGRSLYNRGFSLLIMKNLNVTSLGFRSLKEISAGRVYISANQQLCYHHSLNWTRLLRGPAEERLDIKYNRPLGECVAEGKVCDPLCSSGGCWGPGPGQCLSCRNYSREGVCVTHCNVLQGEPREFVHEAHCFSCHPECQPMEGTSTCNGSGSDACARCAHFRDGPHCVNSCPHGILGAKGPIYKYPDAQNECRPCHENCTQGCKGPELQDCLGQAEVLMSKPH

Binder | IL-2 release of PBMC with HER3-expressing MCF-7 cells (EC50) [1] [nM] | killing of MCF-7 cells by PBMC, MTT assay (EC50) [1] [nM] | EC50 [2] [nM] | EC50 [3] [nM] | EC50 [4] | EC50 [5] | other results
scDb3-43xCD3-scFv3-43 (bispecific antibody, Trivalent: two sites for HER3, one for CD3; also called scDb-scFv; scDb3-43xhuU3-scFv3-43) QLQQSGPGLVKPSQTLSLTCAISGDSVSSNRAAWNWIRQSPSRGLEWLGRTYYRSKWYNDYAQSLKSRITINPDTPKNQFSLQLNSVTPEDTAVYYCARDGQLGLDALDIWGQGTMVTVSSGGGGSDIQMTQSPSSLSASVGDRVTITCRASQDIRNYLNWYQQKPGKAPKLLIYYTSRLHSGVPSRFSGSGSGTDFTFTISSLQPEDIATYYCQQGNTLPWTFGQGTKLEIKRGGGGSGGGGSGGGGSQVQLVQSGAEVKKPGSSVKVSCKASGGTFSGYTMNWVRQAPGQGLEWMGLINPYKGVSTYNGKFKDRVTITADKSTSTAYMELSSLRSEDTAVYYCARSGYYGDSDWYFDVWGQGTLVTVSSGGGGSQAGLTQPPAVSVAPGQTASITCGRDNIGSRSVHWYQQKPGQAPVLVVYDDSDRPAGIPERFSGSNYENTATLTISRVEAGDEADYYCQVWGITSDHVVFGGGTKLTVLAAAGGSGGGGSGGGTQVQLQQSGPGLVKPSQTLSLTCAISGDSVSSNRAAWNWIRQSPSRGLEWLGRTYYRSKWYNDYAQSLKSRITINPDTPKNQFSLQLNSVTPEDTAVYYCARDGQLGLDALDIWGQGTMVTVSSGGGGSGGGGSGGGGSQAGLTQPPAVSVAPGQTASITCGRDNIGSRSVHWYQQKPGQAPVLVVYDDSDRPAGIPERFSGSNYENTATLTISRVEAGDEADYYCQVWGITSDHVVFGGGTKLTVLGSLHHHHHH | 0.29 | 0.034 | 4.2 | 13.2 | 0.0316 nM and 0.0314 nM | 0.81 nM | 
scDb 3-43xCD3 (bispecific antibody, also called scDb3-43xhuU3) QLQQSGPGLVKPSQTLSLTCAISGDSVSSNRAAWNWIRQSPSRGLEWLGRTYYRSKWYNDYAQSLKSRITINPDTPKNQFSLQLNSVTPEDTAVYYCARDGQLGLDALDIWGQGTMVTVSSGGGGSDIQMTQSPSSLSASVGDRVTITCRASQDIRNYLNWYQQKPGKAPKLLIYYTSRLHSGVPSRFSGSGSGTDFTFTISSLQPEDIATYYCQQGNTLPWTFGQGTKLEIKRGGGGSGGGGSGGGGSQVQLVQSGAEVKKPGSSVKVSCKASGGTFSGYTMNWVRQAPGQGLEWMGLINPYKGVSTYNGKFKDRVTITADKSTSTAYMELSSLRSEDTAVYYCARSGYYGDSDWYFDVWGQGTLVTVSSGGGGSQAGLTQPPAVSVAPGQTASITCGRDNIGSRSVHWYQQKPGQAPVLVVYDDSDRPAGIPERFSGSNYENTATLTISRVEAGDEADYYCQVWGITSDHVVFGGGTKLTVLAAAHHHHHH | 0.48 | 0.084 | 2.4 | 3.1 | 1.1 nM | 3.3 nM and 4.87 nM | IL-2 release of PBMC with HER3-expressing Colo205 cells (EC50) [1]: 0.3 nM
IgG 2-35 (antibody, V domains shown, Anti-HER2 antibody found by phage display) VH: QMQLVQSGAEVKKPGESLKISCKGSGYSFTSYWIGWVRQMPGKGLEWMGIIYPGDSDTRYSPSFQGQVTISADKSISTAYLQWSSLKASDTAMYYCARLGRSGSYYNYGMDVWGQGTTVTVSS VL: QAVVTQEPSFSVSPGGTVTLTCGLSSGSVSSSYYPSWYQQTSGQPPRTLIYSTDTRSSGVPDRFSGSILGDKAALTITGAQADDESDYYCMLYMGSGISVFGGGTKLAVL |  |  |  |  |  |  | EC50 (HER2-ECD protein): ~1.5 nM
Db3-43xhu225-Ig (bispecific antibody, human IgG1, kappa, Light chain VH3-43xVLhu225-CL, heavy chain VHhu225xVLhu3-43-CH1-CH2-CH3; two sites for EGFR and two for HER3; also called Db-Ig; bispecific and tetravalent diabody-Ig fusion protein) light: QVQLQQSGPGLVKPSQTLSLTCAISGDSVSSNRAAWNWIRQSPSRGLEWLGRTYYRSKWYNDYAQSLKSRITINPDTPKNQFSLQLNSVTPEDTAVYYCARDGQLGLDALDIWGQGTMVTVSSGGGGSDIQLTQSPSFLSASVGDRVTITCRASQSIGTNIHWYQQKPGKAPKLLIKYASESISGVPSRFSGSGSGTEFTLTISSLQPEDFATYYCQQNNNWPTTFGAGTKLEIKRTVAAPSVFIFPPSDEQLKSGTASVVCLLNNFYPREAKVQWKVDNALQSGNSQESVTEQDSKDSTYSLSSTLTLSKADYEKHKVYACEVTHQGLSSPVTKSFNRGEC heavy: EVQLVESGGGLVQPGGSLRLSCAASGFSLTNYGVHWVRQAPGKGLEWLGVIWSGGNTDYNTPFTSRFTISRDNSKNTLYLQMNSLRAEDTAVYYCARALTYYDYEFAYWGQGTTVTVSSGGGGSQAGLTQPPAVSVAPGQTASITCGRDNIGSRSVHWYQQKPGQAPVLVVYDDSDRPAGIPERFSGSNYENTATLTISRVEAGDEADYYCQVWGITSDHVVFGGGTKLTVLASTKGPSVFPLAPSSKSTSGGTAALGCLVKDYFPEPVTVSWNSGALTSGVHTFPAVLQSSGLYSLSSVVTVPSSSLGTQTYICNVNHKPSNTKVDKKVEPKSCDKTHTCPPCPAPPVAGPSVFLFPPKPKDTLMISRTPEVTCVVVDVSHEDPEVKFNWYVDGVEVHNAKTKPREEQYNSTYRVVSVLTVLHQDWLNGKEYKCKVSNKGLPSSIEKTISKAKGQPREPQVYTLPPSRDELTKNQVSLTCLVKGFYPSDIAVEWESNGQPENNYKTTPPVLDSDGSFFLYSKLTVDKSRWQQGNVFSCSVMHEALHNHYTQKSLSLSPGK |  |  |  |  |  |  | EC50 [6]: 0.26 nM; EC50 [7]: 0.054 nM; EC50 [8]: 0.85 nM; EC50 (EGFR on tumor cells [9]): 0.14 nM; EC50 (EGFR on tumor cells [10]): 0.047 nM; EC50 [11]: 0.047 nM
scFv 3-43 (scFv) scFv: QVQLQQSGPGLVKPSQTLSLTCAISGDSVSSNRAAWNWIRQSPSRGLEWLGRTYYRSKWYNDYAQSLKSRITINPDTPKNQFSLQLNSVTPEDTAVYYCARDGQLGLDALDIWGQGTMVTVSSGGGGSGGGGSGGGGSQAGLTQPPAVSVAPGQTASITCGRDNIGSRSVHWYQQKPGQAPVLVVYDDSDRPAGIPERFSGSNYENTATLTISRVEAGDEADYYCQVWGITSDHVVFGGGTKLTVLG |  |  |  |  |  |  | binding result [12]: binds

Source: patent US20190194350A1 (UNIVERSITAT STUTTGART, published 2019)
